From publication PMC11960969, “Mdga2 deficiency leads to an aberrant activation of BDNF/TrkB signaling that underlies autism-relevant synaptic and behavioral changes in mice” (PLOS Biology, 2025) come the findings set out here.

This assay concerns cell membrane localization in HeLa cells and mouse primary neurons. As to the kind of experiment: Immunostaining of membrane localization of MDGA2, ΔMAM or V930I in transfected cells. The note with it: HeLa cells transfected 24 h, S3E Fig. The format is cell-based. An excerpt: Fig 7 The autism spectrum disorder (ASD)-associated MDGA2 V930I mutation impairs the MDGA2-TrkB interaction and MDGA2’s inhibitory effect on the tyrosine kinase B (TrkB) signaling. (A) Schematic depiction of the WT human MDGA2 and its V930I mutation constructs that are tagged with GFP. (B, C) HeLa cells (B) and mouse primary neurons (C) transfected with MDGA2 (green) or V930I (green) were immunostained with an antibody against the plasma membrane protein ATP1A1 (red) and then observed by confocal microscopy. Scale bars = 10 μm. (D) Cell surface expression of WT MDGA2 or V930I in transfected HeLa cells was determined by surface biotinylation assays. Biotinylated (cell surface) protein levels were quantified by densitometry and normalized to total protein levels for comparison (WT MDGA2 levels were set to one arbitrary unit). n = 4 experimental replicates. (E) Mouse primary neurons were transfected with MDGA2, V930I, or ΔMAM. […] Immunoprecipitated protein levels were quantified by densitometry, normalized to respective inputs, and compared to those transfected with MDGA2 (set to one arbitrary units). n = 4 experimental replicates. […] Levels of phosphorylated proteins were quantified by densitometry, normalized to respective total protein levels and compared to controls (set to one arbitrary units). n = 6 experimental replicates. […]

B1: MDGA2-ΔMAM: truncated form of MDGA2 lacking its MAM domain (protein)
chain: PPTVRIVHSGLACNIEEERYSERVYTIREGETLELTCLVTGHPRPQIRWTKTAGSASDRFQDSSVFNETLRITNIQRHQGGRYYCKAENGLGSPAIKSIRVDVYYLDDPVVTVHQSIGEAKEQFYYERTVFLRCVANSNPPVRYSWRRGQEVLLQGSDKGVEIYEPFFTQGETKILKLKNLRPQDYANYSCIASVRNVCNIPDKMVSFRLSNKTASPSIKLLVDDPIVVNPGEAITLVCVTTGGEPAPSLTWVRSFGTLPEKTVLNGGTLTIPAITSDDAGTYSCIANNNVGNPAKKSTNIIVRALKKGRFWITPDPYHKDDNIQIGREVKISCQVEAVPSEELTFSWFKNGRPLRSSERMVITQTDPDVSPGTTNLDIIDLKFTDFGTYTCVASLKGGGISDISIDVNISSSTVPPNLTVPQEKSPLVTREGDTIELQCQVTGKPKPIILWSRADKEVAMPDGSMQMESYDGTLRIVNVSREMSGMYRCQTSQYNGFNVKPREALVQLIVQYPPAVEPAFLEIRQGQDRSVTMSCRVLRAYPIRVLTYEWRLGNKLLRTGQFDSQEYTEYAVKSLSNENYGVYNCSIINEAGAGRCSFLVTGKAYAPEFYYDTYNPVWQNRHRVYSYSLQWTQMNPDAVDRIVAYRLGIRQAGQQRWWEQEIKINGNIQKGELITYNLTELIKPEAYEVRLTPLTKFGEGDSTIRVIKYSAPVNPHLREQDLATKNSVD
modifications: left off: GFP, end not stated, kept
notes: truncated form of MDGA2 lacking its MAM domain
With B1, the cell membrane localization result is “no effect on its cell membrane localization”.
